Experimental data: US20160200782A1

Columns and labels:
Experiment in all cases: cell-based or functional assay
EphA7(h) (human) = EphA7(h) (human) (UniProt Q15375)
CK2(h) (human) = target: CK2(h) (human)
TAO1(h) (human) = TAO1(h) (human) (UniProt Q7L7X3)
Hck(h) activated (human) = Hck(h) activated (human) (UniProt P08631)
CHK2(I157T)(h) (human) = CHK2(I157T)(h) (human) (UniProt O96017)
PKCα(h) (human) = PKCα(h) (human) (UniProt P17252)
PKBγ(h) (human) = PKBγ(h) (human) (UniProt Q9Y243)
DMPK(h) (human) = DMPK(h) (human) (UniProt Q09013)
Pim-3(h) (human) = Pim-3(h) (human) (UniProt Q86V86)
CDK6/cyclinD3(h) (human) = CDK6/cyclinD3(h) (human) (UniProt Q00534)
GSK3α(h) (human) = GSK3α(h) (human) (UniProt P49840)
SRPK2(h) (human) = SRPK2(h) (human) (UniProt P78362)
cKit(V560G)(h) (human) = cKit(V560G)(h) (human) (UniProt P10721)
Sequence of cKit(V560G)(h) (human) (P10721 544-976 V560G limits assumed): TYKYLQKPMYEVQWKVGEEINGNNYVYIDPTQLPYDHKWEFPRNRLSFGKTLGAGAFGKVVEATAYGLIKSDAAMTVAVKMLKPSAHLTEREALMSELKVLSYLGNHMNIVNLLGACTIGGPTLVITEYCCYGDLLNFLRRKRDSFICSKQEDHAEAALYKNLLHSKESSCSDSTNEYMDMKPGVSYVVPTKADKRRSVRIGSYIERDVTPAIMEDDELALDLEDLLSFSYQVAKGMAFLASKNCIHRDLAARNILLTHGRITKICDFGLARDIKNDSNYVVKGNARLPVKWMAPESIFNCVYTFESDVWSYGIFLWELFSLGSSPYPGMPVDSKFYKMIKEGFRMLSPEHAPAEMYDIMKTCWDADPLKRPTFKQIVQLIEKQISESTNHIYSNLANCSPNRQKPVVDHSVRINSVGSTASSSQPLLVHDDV

NEK3(h) (human) = NEK3(h) (human) (UniProt P51956)
TAO2(h) (human) = TAO2(h) (human) (UniProt Q9UL54)
PKCη(h) (human) = PKCη(h) (human) (UniProt P24723)
mTOR(h) (human) = mTOR(h) (human) (UniProt P42345)
ASK1(h) (human) = ASK1(h) (human) (UniProt Q99683)
Sequence of ASK1(h) (human) (Q99683 649-946 limits assumed): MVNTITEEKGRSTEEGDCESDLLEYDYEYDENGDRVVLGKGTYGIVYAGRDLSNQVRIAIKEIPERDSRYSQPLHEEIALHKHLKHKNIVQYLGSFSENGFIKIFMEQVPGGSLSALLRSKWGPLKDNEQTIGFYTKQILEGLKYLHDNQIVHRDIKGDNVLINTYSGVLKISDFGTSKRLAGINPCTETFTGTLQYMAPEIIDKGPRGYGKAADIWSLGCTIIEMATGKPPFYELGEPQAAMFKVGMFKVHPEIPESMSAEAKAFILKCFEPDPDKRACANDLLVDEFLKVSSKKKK

CaMKIIβ(h) (human) = CaMKIIβ(h) (human) (UniProt Q13554)
Ab1(H396P)(h) (human) = Ab1(H396P)(h) (human) (UniProt P00519)
IR(h), activated (human) = IR(h), activated (human) (UniProt P06213)
Sequence of IR(h), activated (human) (P06213 1005-1310 limits assumed): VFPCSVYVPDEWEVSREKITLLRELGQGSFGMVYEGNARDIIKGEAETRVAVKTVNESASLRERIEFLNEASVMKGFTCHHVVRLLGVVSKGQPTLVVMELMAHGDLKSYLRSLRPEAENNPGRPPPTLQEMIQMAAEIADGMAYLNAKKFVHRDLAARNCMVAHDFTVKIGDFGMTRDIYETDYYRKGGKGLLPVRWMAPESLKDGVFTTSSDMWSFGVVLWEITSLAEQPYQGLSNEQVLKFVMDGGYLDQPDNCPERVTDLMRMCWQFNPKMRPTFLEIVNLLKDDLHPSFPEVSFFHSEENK

eEF-2K(h) (human) = eEF-2K(h) (human) (UniProt O00418)
Sequence of eEF-2K(h) (human) (O00418 whole entry): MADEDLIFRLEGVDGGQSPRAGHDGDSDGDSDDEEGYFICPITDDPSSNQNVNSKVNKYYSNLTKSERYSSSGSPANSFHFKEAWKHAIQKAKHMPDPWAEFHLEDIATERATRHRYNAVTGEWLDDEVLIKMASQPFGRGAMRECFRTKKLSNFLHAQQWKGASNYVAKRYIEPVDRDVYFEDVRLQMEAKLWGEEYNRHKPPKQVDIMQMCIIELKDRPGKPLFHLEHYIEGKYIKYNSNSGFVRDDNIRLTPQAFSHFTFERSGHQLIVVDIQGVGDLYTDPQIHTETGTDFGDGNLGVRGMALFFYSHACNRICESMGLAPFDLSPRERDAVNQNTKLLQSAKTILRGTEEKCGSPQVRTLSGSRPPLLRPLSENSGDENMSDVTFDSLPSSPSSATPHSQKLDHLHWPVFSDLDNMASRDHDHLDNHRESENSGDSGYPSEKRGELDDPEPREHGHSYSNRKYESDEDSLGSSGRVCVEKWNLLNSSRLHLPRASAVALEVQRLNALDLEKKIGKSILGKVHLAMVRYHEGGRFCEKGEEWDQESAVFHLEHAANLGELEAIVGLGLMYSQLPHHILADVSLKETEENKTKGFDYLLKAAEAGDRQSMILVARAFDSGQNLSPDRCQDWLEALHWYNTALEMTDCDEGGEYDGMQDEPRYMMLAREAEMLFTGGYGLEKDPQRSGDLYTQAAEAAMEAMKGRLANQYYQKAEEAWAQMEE

GCK(h) (human) = GCK(h) (human) (UniProt Q12851)
PKCτ(h) (human) = target: PKCτ(h) (human)
ErbB4(h) (human) = ErbB4(h) (human) (UniProt Q15303)
TAO3(h) (human) = TAO3(h) (human) (UniProt Q9H2K8)
Fyn(h) (human) = Fyn(h) (human) (UniProt P06241)
MLCK(h) (human) = target: MLCK(h) (human)
TSSK1(h) (human) = TSSK1(h) (human) (UniProt Q9BXA7)
PDGFRα(h) (human) = PDGFRα(h) (human) (UniProt P16234)
FAK(h) (human) = FAK(h) (human) (UniProt Q05397)
CDK3/cyclinE(h) (human) = CDK3/cyclinE(h) (human) (UniProt Q00526)
TSSK2(h) (human) = TSSK2(h) (human) (UniProt Q96PF2)
PAK2(h) (human) = PAK2(h) (human) (UniProt Q13177)
AMPKa1(h) (human) = AMPKa1(h) (human) (UniProt Q13131)
Sequence of AMPKa1(h) (human) (Q13131 whole entry): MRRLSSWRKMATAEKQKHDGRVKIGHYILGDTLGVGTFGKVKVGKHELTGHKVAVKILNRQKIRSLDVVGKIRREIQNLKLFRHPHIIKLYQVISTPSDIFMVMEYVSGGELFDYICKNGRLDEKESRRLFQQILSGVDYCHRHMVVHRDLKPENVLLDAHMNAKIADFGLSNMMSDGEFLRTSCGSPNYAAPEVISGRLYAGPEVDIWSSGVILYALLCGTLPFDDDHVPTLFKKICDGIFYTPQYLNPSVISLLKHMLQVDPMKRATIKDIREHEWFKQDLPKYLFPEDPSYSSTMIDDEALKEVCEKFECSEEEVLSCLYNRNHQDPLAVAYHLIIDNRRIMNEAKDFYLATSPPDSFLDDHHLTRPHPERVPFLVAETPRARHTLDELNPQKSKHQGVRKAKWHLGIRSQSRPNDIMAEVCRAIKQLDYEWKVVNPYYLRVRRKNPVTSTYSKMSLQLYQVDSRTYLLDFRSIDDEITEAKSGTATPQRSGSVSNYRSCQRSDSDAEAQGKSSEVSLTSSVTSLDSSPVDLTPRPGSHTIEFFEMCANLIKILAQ

Rsk2(h) (human) = Rsk2(h) (human) (UniProt P51812)
ZAP-70(h) (human) = ZAP-70(h) (human) (UniProt P43403)
EphA5(h) (human) = EphA5(h) (human) (UniProt P54756)
ACK1(h) (human) = ACK1(h) (human) (UniProt Q07912)
CDK5/p35(h) (human) = CDK5/p35(h) (human) (UniProt Q00535)
PAK4(h) (human) = PAK4(h) (human) (UniProt O96013)
JAK3(h) (human) = JAK3(h) (human) (UniProt P52333)
Sequence of JAK3(h) (human) (P52333 781-1124 limits assumed): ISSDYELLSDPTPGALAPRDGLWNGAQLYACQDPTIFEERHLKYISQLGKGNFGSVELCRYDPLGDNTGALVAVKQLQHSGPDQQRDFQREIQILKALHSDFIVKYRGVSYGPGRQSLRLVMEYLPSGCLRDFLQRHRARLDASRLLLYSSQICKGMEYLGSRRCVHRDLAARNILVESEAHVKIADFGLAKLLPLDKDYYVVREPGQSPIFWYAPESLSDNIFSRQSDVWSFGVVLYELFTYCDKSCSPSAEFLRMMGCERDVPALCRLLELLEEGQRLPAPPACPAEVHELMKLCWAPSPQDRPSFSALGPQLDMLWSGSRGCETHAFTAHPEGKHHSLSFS

IKKα(h) (human) = IKKα(h) (human) (UniProt O15111)
DRAK1(h) (human) = DRAK1(h) (human) (UniProt Q9UEE5)
PKCβI(h) (human) = PKCβI(h) (human) (UniProt P05771)
CaMKIδ(h) (human) = CaMKIδ(h) (human) (UniProt Q8IU85)
Sequence of CaMKIδ(h) (human) (Q8IU85 whole entry, stated change not applied): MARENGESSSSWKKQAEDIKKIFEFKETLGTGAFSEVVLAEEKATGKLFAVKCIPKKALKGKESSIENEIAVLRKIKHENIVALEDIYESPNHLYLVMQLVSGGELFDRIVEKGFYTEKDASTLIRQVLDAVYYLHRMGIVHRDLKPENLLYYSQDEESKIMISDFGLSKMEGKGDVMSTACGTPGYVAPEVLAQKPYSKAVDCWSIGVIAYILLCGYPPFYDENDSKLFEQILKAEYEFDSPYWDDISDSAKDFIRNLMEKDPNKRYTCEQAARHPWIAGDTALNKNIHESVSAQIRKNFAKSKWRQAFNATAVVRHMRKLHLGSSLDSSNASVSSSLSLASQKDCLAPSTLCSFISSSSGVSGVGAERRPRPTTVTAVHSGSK

PKA(h) (human) = target: PKA(h) (human)
IR(h) (human) = IR(h) (human) (UniProt P06213)
Sequence of IR(h) (human) (P06213 1005-1310 limits assumed): as the sequence (P06213 1005-1310 limits assumed) above

ZIPK(h) (human) = ZIPK(h) (human) (UniProt O43293)
cKit(h) (human) = cKit(h) (human) (UniProt P10721)
Sequence of cKit(h) (human) (P10721 544-976 limits assumed): as the sequence (P10721 544-976 V560G limits assumed) above, with G17V counted along it

Lck(h) (human) = Lck(h) (human) (UniProt P06239)
Met(h) (human) = Met(h) (human) (UniProt P08581)
ULK2(h) (human) = ULK2(h) (human) (UniProt Q8IYT8)
cSRC(h) (human) = cSRC(h) (human) (UniProt P12931)
Plk3(h) (human) = Plk3(h) (human) (UniProt Q9H4B4)
TLK2(h) (human) = TLK2(h) (human) (UniProt Q86UE8)
Sequence of TLK2(h) (human) (Q86UE8 whole entry): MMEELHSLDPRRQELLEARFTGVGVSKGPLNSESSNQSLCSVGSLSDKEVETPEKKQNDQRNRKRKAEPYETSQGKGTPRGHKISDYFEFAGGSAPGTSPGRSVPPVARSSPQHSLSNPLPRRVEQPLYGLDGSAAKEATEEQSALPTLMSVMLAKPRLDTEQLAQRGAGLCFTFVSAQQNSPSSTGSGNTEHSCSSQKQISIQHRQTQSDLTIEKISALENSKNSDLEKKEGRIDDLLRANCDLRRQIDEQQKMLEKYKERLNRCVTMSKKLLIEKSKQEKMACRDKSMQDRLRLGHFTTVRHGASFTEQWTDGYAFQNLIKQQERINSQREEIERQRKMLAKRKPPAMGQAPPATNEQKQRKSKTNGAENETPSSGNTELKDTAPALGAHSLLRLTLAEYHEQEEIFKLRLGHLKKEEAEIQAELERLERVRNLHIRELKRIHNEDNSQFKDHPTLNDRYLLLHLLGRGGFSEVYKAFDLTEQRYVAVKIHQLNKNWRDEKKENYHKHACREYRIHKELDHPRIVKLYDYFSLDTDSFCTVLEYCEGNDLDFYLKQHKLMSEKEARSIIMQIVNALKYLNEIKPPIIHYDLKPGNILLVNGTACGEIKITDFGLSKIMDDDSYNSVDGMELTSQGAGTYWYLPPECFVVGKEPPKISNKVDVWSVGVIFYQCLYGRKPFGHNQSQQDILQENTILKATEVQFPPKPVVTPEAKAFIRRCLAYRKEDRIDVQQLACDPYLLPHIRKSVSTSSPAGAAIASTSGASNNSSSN

ULK3(h) (human) = ULK3(h) (human) (UniProt Q6PHR2)
PAK5(h) (human) = PAK5(h) (human) (UniProt Q9P286)

Sequence of PKBγ(h) (human) (Q9Y243 whole entry): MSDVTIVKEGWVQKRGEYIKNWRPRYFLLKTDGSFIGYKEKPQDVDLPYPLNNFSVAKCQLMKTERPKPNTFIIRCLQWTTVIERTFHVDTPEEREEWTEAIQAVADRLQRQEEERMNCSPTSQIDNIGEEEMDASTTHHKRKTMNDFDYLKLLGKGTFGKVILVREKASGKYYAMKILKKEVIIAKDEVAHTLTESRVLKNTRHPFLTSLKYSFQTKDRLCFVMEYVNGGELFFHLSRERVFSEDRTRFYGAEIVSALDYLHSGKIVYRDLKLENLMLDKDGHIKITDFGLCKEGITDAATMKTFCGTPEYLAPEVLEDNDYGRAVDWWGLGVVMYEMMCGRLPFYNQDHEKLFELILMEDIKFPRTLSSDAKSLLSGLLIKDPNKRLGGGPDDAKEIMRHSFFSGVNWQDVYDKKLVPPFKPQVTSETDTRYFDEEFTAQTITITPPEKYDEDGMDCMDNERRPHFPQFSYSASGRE
Sequence of TAO1(h) (human) (Q7L7X3 1-320 limits assumed): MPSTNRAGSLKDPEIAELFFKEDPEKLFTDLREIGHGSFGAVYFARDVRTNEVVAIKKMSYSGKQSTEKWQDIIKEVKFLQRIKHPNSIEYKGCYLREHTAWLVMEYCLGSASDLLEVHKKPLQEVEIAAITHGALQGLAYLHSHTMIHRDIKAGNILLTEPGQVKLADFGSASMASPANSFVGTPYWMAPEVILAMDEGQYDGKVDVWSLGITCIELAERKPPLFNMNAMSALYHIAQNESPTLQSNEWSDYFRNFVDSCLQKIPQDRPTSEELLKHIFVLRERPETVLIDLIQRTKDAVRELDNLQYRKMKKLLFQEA

MMI-0200 (peptide)
% activity (EphA7(h) (human)): 220% | % activity (CK2(h) (human)): 83% | % activity (TAO1(h) (human)): 105% | % activity (Hck(h) activated (human)): 100% | % activity (CHK2(I157T)(h) (human)): 85% | % activity (PKCα(h) (human)): 100% | % activity (PKBγ(h) (human)): 103% | % activity (DMPK(h) (human)): 66% | % activity (Pim-3(h) (human)): 94% | % activity (CDK6/cyclinD3(h) (human)): 100% | % activity (GSK3α(h) (human)): 119% | % activity (SRPK2(h) (human)): 100% | % activity (cKit(V560G)(h) (human)): 115% | % activity (NEK3(h) (human)): 100% | % activity (TAO2(h) (human)): 93% | % activity (PKCη(h) (human)): 101% | % activity (mTOR(h) (human)): 110% | % activity (ASK1(h) (human)): 101% | % activity (CaMKIIβ(h) (human)): 53% | % activity (Ab1(H396P)(h) (human)): 121% | % activity (IR(h), activated (human)): 105% | % activity (eEF-2K(h) (human)): 136% | % activity (GCK(h) (human)): 99% | % activity (PKCτ(h) (human)): 97% | % activity (ErbB4(h) (human)): 82% | % activity (TAO3(h) (human)): 102% | % activity (Fyn(h) (human)): 75% | % activity (MLCK(h) (human)): 103% | % activity (TSSK1(h) (human)): 98% | % activity (PDGFRα(h) (human)): 108% | % activity (FAK(h) (human)): 110% | % activity (CDK3/cyclinE(h) (human)): 104% | % activity (TSSK2(h) (human)): 91% | % activity (PAK2(h) (human)): 69% | % activity (AMPKa1(h) (human)): 108% | % activity (Rsk2(h) (human)): 101% | % activity (ZAP-70(h) (human)): 58% | % activity (EphA5(h) (human)): 123% | % activity (ACK1(h) (human)): 97% | % activity (CDK5/p35(h) (human)): 92% | % activity (PAK4(h) (human)): 98% | % activity (JAK3(h) (human)): 117% | % activity (IKKα(h) (human)): 104% | % activity (DRAK1(h) (human)): 34% | % activity (PKCβI(h) (human)): 98% | % activity (CaMKIδ(h) (human)): 47% | % activity (PKA(h) (human)): 110% | % activity (IR(h) (human)): 90% | % activity (ZIPK(h) (human)): 67% | % activity (cKit(h) (human)): 110% | % activity (Lck(h) (human)): 113% | % activity (Met(h) (human)): 71% | % activity (ULK2(h) (human)): 132% | % activity (cSRC(h) (human)): 32% | % activity (Plk3(h) (human)): 107% | % activity (TLK2(h) (human)): 129% | % activity (ULK3(h) (human)): 164% | % activity (PAK5(h) (human)): 100%

MMI-0500 (peptide)
% activity (EphA7(h) (human)): 189% | % activity (CK2(h) (human)): 93% | % activity (TAO1(h) (human)): 24% | % activity (Hck(h) activated (human)): 67% | % activity (CHK2(I157T)(h) (human)): 3% | % activity (PKCα(h) (human)): 3% | % activity (PKBγ(h) (human)): 20% | % activity (DMPK(h) (human)): 12% | % activity (Pim-3(h) (human)): 37% | % activity (CDK6/cyclinD3(h) (human)): 23% | % activity (GSK3α(h) (human)): 175% | % activity (SRPK2(h) (human)): 80% | % activity (cKit(V560G)(h) (human)): 198% | % activity (NEK3(h) (human)): 20% | % activity (TAO2(h) (human)): 15% | % activity (PKCη(h) (human)): 45% | % activity (mTOR(h) (human)): 135% | % activity (ASK1(h) (human)): -4% | % activity (CaMKIIβ(h) (human)): 3% | % activity (Ab1(H396P)(h) (human)): 51% | % activity (IR(h), activated (human)): 90% | % activity (eEF-2K(h) (human)): 43% | % activity (GCK(h) (human)): 30% | % activity (PKCτ(h) (human)): 7% | % activity (ErbB4(h) (human)): 2% | % activity (TAO3(h) (human)): 12% | % activity (Fyn(h) (human)): 83% | % activity (MLCK(h) (human)): 0% | % activity (TSSK1(h) (human)): 46% | % activity (PDGFRα(h) (human)): 40% | % activity (FAK(h) (human)): 94% | % activity (CDK3/cyclinE(h) (human)): 8% | % activity (TSSK2(h) (human)): 92% | % activity (PAK2(h) (human)): 44% | % activity (AMPKa1(h) (human)): 35% | % activity (Rsk2(h) (human)): 14% | % activity (ZAP-70(h) (human)): 1% | % activity (EphA5(h) (human)): 42% | % activity (ACK1(h) (human)): 64% | % activity (CDK5/p35(h) (human)): 59% | % activity (PAK4(h) (human)): 86% | % activity (JAK3(h) (human)): 95% | % activity (IKKα(h) (human)): 50% | % activity (DRAK1(h) (human)): 8% | % activity (PKCβI(h) (human)): 1% | % activity (CaMKIδ(h) (human)): 0% | % activity (PKA(h) (human)): 118% | % activity (IR(h) (human)): 95% | % activity (ZIPK(h) (human)): 1% | % activity (cKit(h) (human)): 45% | % activity (Lck(h) (human)): 359% | % activity (Met(h) (human)): 27% | % activity (ULK2(h) (human)): 124% | % activity (cSRC(h) (human)): 30% | % activity (Plk3(h) (human)): 122% | % activity (TLK2(h) (human)): 133% | % activity (ULK3(h) (human)): 177% | % activity (PAK5(h) (human)): 125%
